From patent US20220144930A1 come the findings set out here.

The target in test [1] is recombinant human VEGF165 protein (human) (UniProt P15692). The test is described as follows: streptavidin-coated sensor with immobilized biotin-labeled VEGF165; reference Avastin.
Test [2] shares this target. The test is described as follows: streptavidin-coated sensor with immobilized biotin-labeled VEGF165, antibody at several concentrations.
Test [3] has the same target. The test is described as follows: cell-based or functional assay.
Test [4] shares this target. Kind of test: ELISA; coated VEGF165 titrated 0.15-3000 ng/mL, antibody fixed at 1 µg/mL (EC50 is of the coating concentration).

B1: humanized antibody VEGF-H988 (antibody, human IgG1, kappa, V domains shown)
VH: QSVQESGPGLVKPSETLSLTCTVSGIDLSSYAISWVRQPPGKGLEYIGYIWNDLFTYYASWAKGRVTISVDTSKNQVDLKLSSVTAADTAVYFCARGTLGDYGGMDPWGQGTLVTVSS
VL: ELQLTQSPSSLSASVGDRVTITCQSSKFLWQGRRLAWYQQKPGKVPKLLIYGASTLASGVPSRFKGSGSGTDFTLTISSLQPEDVATYYCAGYKSYDGDVVGFGGGTKVEIKR
A word on the Kd: it is the concentration at which binding is half-saturated. By koff is commonly meant the rate constant with which the complex falls apart. By kon is commonly meant a measure of how fast the partners come together. A word on the EC50: it is the concentration giving half of the maximal effect. For B1, the fold affinity against Avastin in test [1] worked out at 1.5 fold. Further, in test [2], the Kd stood at 0.0195 nM, the koff was found to be 6.7e-06 s⁻¹ and the kon was determined as 344000 M⁻¹ s⁻¹. In test [3], the EC50(nM), neutralizing VEGF165 at 10 ng/mL, HUVEC proliferation was found to be 0.14 nM; the EC50(nM), neutralizing VEGF165 at 10 ng/mL, HUVEC proliferation (run against Avastin) is 0.13 nM; the EC50(nM), neutralizing VEGF165 at 100 ng/mL, HUVEC proliferation amounted to 1.34 nM; the EC50(nM), neutralizing VEGF165 at 100 ng/mL, HUVEC proliferation (run against Avastin) came out at 1.36 nM. Also, in test [3], the EC50(nM), neutralizing VEGF165 at 1000 ng/mL, HUVEC proliferation came out at 9.67 nM; the EC50(nM), neutralizing VEGF165 at 1000 ng/mL, HUVEC proliferation (run against Avastin) was 9.33 nM; the maximum neutralization rate (%), VEGF165 at 10 ng/mL, HUVEC proliferation was 100%; the maximum neutralization rate (%), VEGF165 at 10 ng/mL, HUVEC proliferation (run against Avastin) amounted to 100%. For the same molecule, in test [3], the maximum neutralization rate (%), VEGF165 at 100 ng/mL, HUVEC proliferation worked out at 102%; the maximum neutralization rate (%), VEGF165 at 100 ng/mL, HUVEC proliferation (run against Avastin) is 102%; the maximum neutralization rate (%), VEGF165 at 1000 ng/mL, HUVEC proliferation is 104%; the maximum neutralization rate (%), VEGF165 at 1000 ng/mL, HUVEC proliferation (run against Avastin) is 104%. In addition, in test [4], the half-maximal effective concentration (EC50) stood at 2.42 ng/mL.
